Experimental data reported in PMC4585913, “Crystal structure of Streptococcus pneumoniae pneumolysin provides key insights into early steps of pore formation” (Scientific Reports, 2015).

Target: the molecule itself
Assay: crystal structure; PLY 10.5 mg/ml co-crystallised with 5 mM KAu(CN)2 in 10% PEG 8000, 10% glycerol, 10% ethylene glycol, 100 mM HEPES pH 7.5; space group P212121, one molecule in the asymmetric unit; linear oligomer formed by crystal packing; 2.9 A

B1: Pneumolysin (Hexahis-PLY, wild type) (natural protein, Streptococcus pneumoniae)
chain: ANKAVNDFILAMNYDKKKLLTHQGESIENRFIKEGNQLPDEFVVIERKKRSLSTNTSDISVTATNDSRLYPGALLVVDETLLENNPTLLAVDRAPMTYSIDLPGLASSDSFLQVEDPSNSSVRGAVNDLLAKWHQDYGQVNNVPARMQYEKITAHSMEQLKVKFGSDFEKTGNSLDIDFNSVHSGEKQIQIVNFKQIYYTVSVDAVKNPGDVFQDTVTVEDLKQRGISAERPLVYISSVAYGRQVYLKLETTSKSDEVEAAFEALIKGVKVAPQTEWKQILDNTEVKAVILGGDPSSGARVVTGKVDMVEDLIQEGSRFTADHPGLPISYTTSFLRDNVVATFQNSTDYVETKVTAYRNGDLLLDHSGAYVAQYYITWNELSYDHQGKEVLTPKAWDRNGQDLTAHFTTSIPLKGNVRNLSVKIRECTGLAWEWWRTVYEKTDLPLVRKRTISIWGTTLYPQVEDKVEN
notes: Pneumolysin (PLY) of Streptococcus pneumoniae, wild type, cloned into pQE-30; the domains described span residues 1 to 470; The crystals run on SDS-AGE were grown without gold; Three residues of the His tag/linker are visible at the N-terminus of the model; It is written here as m1; also called native PLY; not shown: His6, N-terminal, kept
binding result: binds
